Experimental data taken from patent publication US8329195B2, “Detoxified pneumococcal neuraminidase and uses thereof” (priority 2007, dated 2012).
Substitutions are numbered along the chain they refer to. Read-outs that look alike come from different tables or passages of the source.

B1: NanB: another S. pneumoniae neuraminidase, 43% homology with NanA (protein, UniProt Q54727 30-697, looked up)
Sialidase B: NELNYGQLSISPIFQGGSYQLNNKSIDISSLLLDKLSGESQTVVMKFKADKPNSLQALFGLSNSKAGFKNNYFSIFMRDSGEIGVEIRDAQKGINYLFSRPASLWGKHKGQAVENTLVFVSDSKDKTYTMYVNGIEVFSETVDTFLPISNINGIDKATLGAVNREGKEHYLAKGSIDEISLFNKAISDQEVSTIPLSNPFQLIFQSGDSTQANYFRIPTLYTLSSGRVLSSIDARYGGTHDSKSKINIATSYSDDNGKTWSEPIFAMKFNDYEEQLVYWPRDNKLKNSQISGSASFIDSSIVEDKKSGKTILLADVMPAGIGNNNANKADSGFKEINGHYYLKLKKNGDNDFRYTVRENGVVYNETTNKPTNYTINDKYEVLEGGKSLTVEQYSVDFDSGSLRERHNGKQVPMNVFYKDSLFKVTPTNYIAMTTSQNRGESWEQFKLLPPFLGEKHNGTYLCPGQGLALKSSNRLIFATYTSGELTYLISDDSGQTWKKSSASIPFKNATAEAQMVELRDGVIRTFFRTTTGKIAYMTSRDSGETWSKVSYIDGIQQTSYGTQVSAIKYSQLIDGKEAVILSTPNSRSGRKGGQLVVGLVNKEDDSIDWKYHYDIDLPSYGYAYSAITELPNHHIGVLFEKYDSWSRNELHLSNVVQYIDLEINDLTK
B2: NanA571: recombinant 571-amino-acid central fragment of TIGR4 NanA, corresponding to residues 230-800 of R6 NanA; His-tagged form SEQ ID NO:18 (protein, listed as Streptococcus pneumoniae)
chain: PTAELPKGRVRLYVNGVLSRTSLRSGNFIKDMPDVTHVQIGATKRANNTVWGSNLQIRNLTVYNRALTPEEVQKRSQLFKRSDLEKKLPEGAALTEKTDIFESGRNGNPNKDGIKSYRIPALLKTDKGTLIAGADERRLHSSDWGDIGMVIRRSEDNGKTWGDRVTITNLRDNPKASDPSIGSPVNIDMVLVQDPETKRIFSIYDMFPEGKGIFGMSSQKEEAYKKIDGKTYQILYREGEKGAYTIRENGTVYTPDGKATDYRVVVDPVKPAYSDKGDLYKGDQLLGNIYFTTNKTSPFRIAKDSYLWMSYSDDDGKTWSAPQDITPMVKADWMKFLGVGPGTGIVLRNGPHKGRILIPVYTTNNVSHLDGSQSSRVIYSDDHGKTWHAGEAVNDNRQVDGQKIHSSTMNNRRAQNTESTVVQLNNGDVKLFMRGLTGDLQVATSKDGGVTWEKDIKRYPQVKDVYVQMSAIHTMHEGKEYIILSNAGGPKRENGMVHLARVEENGELTWLKHNPIQKGEFAYNSLQELGNGEYGILYEHTEKGQNAYTLSFRKFNWEFLSKNLISPTEAN
B3: NanA571_E647T: NanA571 with glutamate E647 converted to threonine (protein)
chain: B2 chain with E418T
B4: NanA571_Y752F: NanA571 with tyrosine Y752 converted to phenylalanine (protein)
chain: B2 chain with Y523F
B5: NanA186: recombinant near-N-terminal NanA fragment from TIGR4, residues 157-342; His-tagged form SEQ ID NO:22 (protein)
chain: EFKPDAKAPAFYNLFSVSSATKKDEYFTMAVYNNTATLEGRGSDGKQFYNNYNDAPLKVKPGQWNSVTFTVEKPTAELPKGRVRLYVNGVLSRTSLRSGNFIKDMPDVTHVQIGATKRANNTVWGSNLQIRNLTVYNRALTPEEVQKRSQLFKRSDLEKKLPEGAALTEKTDIFESGRNGNPNKDG
B6: NanA215: recombinant NanA fragment from TIGR4, residues 347-561, covers 2 of 4 Asp boxes; His-tagged form SEQ ID NO:20 (protein)
chain: RIPALLKTDKGTLIAGADERRLHSSDWGDIGMVIRRSEDNGKTWGDRVTITNLRDNPKASDPSIGSPVNIDMVLVQDPETKRIFSIYDMFPEGKGIFGMSSQKEEAYKKIDGKTYQILYREGEKGAYTIRENGTVYTPDGKATDYRVVVDPVKPAYSDKGDLYKGDQLLGNIYFTTNKTSPFRIAKDSYLWMSYSDDDGKTWSAPQDITPMVKAD

What was measured:
[1] = NanB at its optimal pH; cited from earlier work
[2] = Sialidase (neuraminidase) activity of recombinant NanA fragments; assay type: biochemical
Method: The decreased activity of a detoxified neuraminidase or a neuraminidase fragment as compared to non-detoxified neuraminidase can be measured by the assay of Lock, et al. (Microb. Pathog. 4; 33-43, 1988). Using the Lock assay, NanA activity in lysates, serum, or blood can be measured using 2′-(4-methyl-umbelliferyl)-α-D-N-acetylyneuraminic acid as the substrate in a enzyme assay (Lock et al. 1988). Ten microliters of substrate are combined with 10 μL of serum and incubated for 5 minutes at 37° C. The reaction is stopped using 0.5 M sodium carbonate. Neuraminidase activity is measured in terms of the amount of 4-methylumbelliferone (MU) released per minute. MU has an excitation wavelength of 366 nm and an emission wavelength of 445 nm. […] Thus, the detoxified neuraminidase or fragment thereof can have no measurable enzymatic activity as compared to the enzymatic activity of a non-detoxified neuraminidase. Further, the detoxified neuraminidase can have protective antibody eliciting activity similar to the non-detoxified neuraminidase.
Such an assay is described in Berry et al., J. Bacterial 1784854-4860 (1996).

[3] = test system: TIGR4 Streptococcus pneumoniae; assay type: in vivo; conditions: for protection against nasal carriage / colonization (nasal wash and nasal tissue) / protection from pneumococci reaching (invasion into) the lungs, olfactory bulb, or brain: CBA/N mice, 50 μg intranasal with CTB, TIGR4 challenge, day 7
[4] = MUAN assay of neuraminidase activity; assay type: biochemical; conditions: MUAN assay at 37° C. at pH 7.0
Description: The total abolishment of activity is consistent with the proposed activities as based on the alignment with structures previously known.

Row | Molecule | sialidase activity of the recombinant protein [2] | protection against nasal carriage / colonization (nasal wash and nasal tissue) [3] | neuraminidase activity [4] | protection from pneumococci reaching (invasion into) the lungs, olfactory bulb, or brain [3] | further results
1 | B1 | – | – | – | – | sialidase activity relative to NanA at its pH optimum [1]: about 1/100
2 | B2 | active | solid protection | 3.9 µmol/min/mg | – | sialidase activity of the recombinant protein ([2]; listed as rNanA571): enzymatically active; protection against nasal carriage / colonization (nasal wash and nasal tissue) ([3]; listed as rNanA571): elicited protection; in vivo protection to S. pneumoniae challenge ([3]; figure legend FIG. 11): elicited in vivo protection
3 | B3 | – | – | Neither mutation exhibited any detectable neuraminidase activity | – | –
4 | B4 | – | – | Neither mutation exhibited any detectable neuraminidase activity | – | –
5 | B5 | no sialidase activity | no observed statistically significant protection | – | did not elicit protection | –
6 | B6 | no sialidase activity | no observed statistically significant protection | – | did not elicit protection | –
